The record followed here is US20210040184A1 (ATRECA, published 2021).

Assay in all cases: cell-based or functional assay
Experiment [1] concerns the target T1, HIV-1 CAP45.2.00.G3 envelope (Env) on Env.IMC.LucR virus (HIV-1 clade C).
Experiment [2] addresses T2, HIV-1 DU172.17 envelope (Env) on Env.IMC.LucR virus (HIV-1 clade C).
Experiment [3] deals with T3, HIV-1 DU422.1 envelope (Env) on Env.IMC.LucR virus (HIV-1 clade C).
Experiment [4] concerns the target T4, HIV-1 REJO4541.67 envelope (Env) on Env.IMC.LucR virus (HIV-1 clade B).
Experiment [5] deals with T5, HIV-1 CNE20 envelope (Env) on Env.IMC.LucR virus (HIV-1 clade BC).
Experiment [6] addresses T6, HIV-1 AC10.0.29 envelope (Env) on Env.IMC.LucR virus (HIV-1 clade B).
For experiment [7], the target named is T7, HIV-1 X1632_S2_B10 envelope (Env) on Env.IMC.LucR virus (HIV-1 clade G).
In experiment [8] the target is HIV-1 THRO4156.18 envelope (Env) on Env.IMC.LucR virus (HIV-1 clade B).
For experiment [9], the target named is HIV-1 WITO4160.33 envelope (Env) on Env.IMC.LucR virus (HIV-1 clade B).
Experiment [10] addresses T1, HIV-1 CAP45.2.00.G3 envelope (Env) on …. The source holds these as a separate data set.
The target of experiment [11] is T2, HIV-1 DU172.17 envelope (Env) on …. This is another data set of the same source.
For experiment [12], the target named is T3, HIV-1 DU422.1 envelope (Env) on …. This is another data set of the same source.
Experiment [13] deals with T4, HIV-1 REJO4541.67 envelope (Env) on …. This is another data set of the same source.
Experiment [14] has as its target HIV-1 ZM233M.PB6 envelope (Env) on Env.IMC.LucR virus (HIV-1 clade C).
The target of experiment [15] is T5, HIV-1 CNE20 envelope (Env) on …. The source holds these as a separate data set.
Experiment [16] deals with T6, HIV-1 AC10.0.29 envelope (Env) on …. This is another data set of the same source.
Experiment [17] deals with T7, HIV-1 X1632_S2_B10 envelope (Env) on …. This is another data set of the same source.
The target of experiment [18] is T2, HIV-1 DU172.17 envelope (Env) on …. This is another data set of the same source.

B1: NVS49-L1A2 (antibody, V domains shown)
VH: ADLVQSGAVVKKPGDSVRISCEAQGYRFPDYIIHWIRRAPGQGPEWMGWMNPMGGQVNIPWKFQGRVSMTRDTSIETAFLDLRGLKSDDTAVYYCVRDRSNGSGKRFESSNWFLDLWGRGTAVTIQS
VL: QSALTQPRSVSASPGQSVTISCTGTHNLVSWCQHQPGRAPKLLIYDFNKRPSGVPDRFSGSGSGGTASLTITGLQDDDDAEYFCWAYEAFGGGTKLTVL
B1: the “IC50 of virus neutralization (TZM-BL, luciferase); L1A2 lot CRO #1, 293 cells” value was 0.132 µg/mL in experiment [1]; 0.268 µg/mL in experiment [2]; > 50 µg/mL in [3]; 0.054 µg/mL in [4]; 0.089 µg/mL in experiment [5]; > 50 µg/mL in [6]. In experiment [7], the “IC50 of virus neutralization (TZM-BL, luciferase); L1A2 lot CRO #1, 293 cells” value was > 50 µg/mL. Besides, the “IC50 of virus neutralization (TZM-BL, luciferase); L1A2 lot CRO #2, 293 cells” value is 0.209 µg/mL in experiment [1]; 0.279 µg/mL in experiment [2]; > 50 µg/mL in experiment [3]; 0.072 µg/mL in [4]; 0.124 µg/mL in [5]; > 50 µg/mL in experiment [6]. Moreover, the “IC50 of virus neutralization (TZM-BL, luciferase); L1A2 lot CRO #2, 293 cells” value in [7] is > 50 µg/mL. The “IC50 of virus neutralization (TZM-BL, luciferase); L1A2 lot CRO #2, CHO cells” value in experiment [1] is 0.162 µg/mL; in [2], 0.507 µg/mL; in experiment [3], > 50 µg/mL; in experiment [4], 0.045 µg/mL; in [5], 0.092 µg/mL; in experiment [6] it was > 50 µg/mL. Moreover, the “IC50 of virus neutralization (TZM-BL, luciferase); L1A2 lot CRO #2, CHO cells” value in experiment [7] was > 50 µg/mL. The “IC50 of virus neutralization (TZM-BL, luciferase)” value in [8] was 1.04 µg/mL; in experiment [9], 0.2 µg/mL; in experiment [10] it was 0.209 µg/mL; in experiment [11], 0.279 µg/mL; in experiment [12], > 50 µg/mL; in experiment [13], 0.072 µg/mL. In addition, the “IC50 of virus neutralization (TZM-BL, luciferase)” value is 0.613 µg/mL in [14], 0.124 µg/mL in experiment [15], > 50 µg/mL in [16] and > 50 µg/mL in [17].

B2: NglycoSA (antibody, V domains shown)
VH: ADLVQSGAVVKKPGDSVRISCEAQGYRFPDYIIHWIRRAPGQGPEWMGWMNPMGGQVNIPWKFQGRVSMTRDTSIETAFLDLRGLKSDDTAVYYCVRDRSNGAGKRFESSNWFLDLWGRGTAVTIQS
VL: QSALTQPRSVSASPGQSVTISCTGTHNLVSWCQHQPGRAPKLLIYDFNKRPSGVPDRFSGSGSGGTASLTITGLQDDDDAEYFCWAYEAFGGGTKLTVL
On to B2, for which the “IC50 of virus neutralization (TZM-BL, luciferase)” value in experiment [8] was 0.929 µg/mL; in [9], 0.179 µg/mL; in experiment [10], 0.037 µg/mL; in experiment [11], 0.11 µg/mL; in [12], > 50 µg/mL; in [13], 0.04 µg/mL. Moreover, the “IC50 of virus neutralization (TZM-BL, luciferase)” value was 0.151 µg/mL in experiment [14], 0.05 µg/mL in experiment [15], > 50 µg/mL in experiment [16] and > 50 µg/mL in [17].

B3: NglycoND (antibody, V domains shown)
VH: ADLVQSGAVVKKPGDSVRISCEAQGYRFPDYIIHWIRRAPGQGPEWMGWMNPMGGQVNIPWKFQGRVSMTRDTSIETAFLDLRGLKSDDTAVYYCVRDRSDGSGKRFESSNWFLDLWGRGTAVTIQS
VL: QSALTQPRSVSASPGQSVTISCTGTHNLVSWCQHQPGRAPKLLIYDFNKRPSGVPDRFSGSGSGGTASLTITGLQDDDDAEYFCWAYEAFGGGTKLTVL
Regarding B3, the “fold increase in neutralization IC50 as compared to parent mAb L1A2” value in experiment [18] is ~65 fold. In addition, the “IC50 of virus neutralization (TZM-BL, luciferase)” value was 0.077 µg/mL in experiment [10]; 18.3 µg/mL in experiment [11]; > 50 µg/mL in experiment [12]; 0.062 µg/mL in [13]; > 50 µg/mL in experiment [15]; > 50 µg/mL in experiment [16]. In addition, the “IC50 of virus neutralization (TZM-BL, luciferase)” value in experiment [17] is > 50 µg/mL.

B4: Germ12_NglycoSA_CysCV (antibody, V domains shown)
VH: QVDLVQSGAVVKKPGDSVRVSCEAQGYRFPDYIIHWIRRAPGQGPEWMGWMNPMGGQVNIPWKFQGRVSMTRDTSIETAYMDLRGLRSDDTAVYYCVRDRSNGAGKRFESSNWFLDLWGRGTLVTVSS
VL: QSALTQPRSVSGSPGQSVTISCTGTHNLVSWVQHQPGRAPKLLIYDFNKRPSGVPDRFSGSGSGGTASLTISGLQDEDDAEYFCWAYEAFGGGTKLTVL
Take B4: the “IC50 of virus neutralization (TZM-BL, luciferase)” value in experiment [8] was 11.7 µg/mL; in [9], 0.488 µg/mL; in experiment [10], 0.047 µg/mL; in [11], 0.714 µg/mL; in experiment [12] it was > 50 µg/mL; in [13], ≤ 0.02 µg/mL. The “IC50 of virus neutralization (TZM-BL, luciferase)” value is 0.731 µg/mL in [14], 0.059 µg/mL in experiment [15], > 50 µg/mL in [16] and > 50 µg/mL in experiment [17].

B5: CysCV (antibody, V domains shown)
VH: ADLVQSGAVVKKPGDSVRISCEAQGYRFPDYIIHWIRRAPGQGPEWMGWMNPMGGQVNIPWKFQGRVSMTRDTSIETAFLDLRGLKSDDTAVYYCVRDRSNGSGKRFESSNWFLDLWGRGTAVTIQS
VL: QSALTQPRSVSASPGQSVTISCTGTHNLVSWVQHQPGRAPKLLIYDFNKRPSGVPDRFSGSGSGGTASLTITGLQDDDDAEYFCWAYEAFGGGTKLTVL
B5: the “IC50 of virus neutralization (TZM-BL, luciferase)” value in experiment [8] is 1.4 µg/mL; in experiment [9] it was 0.186 µg/mL; in experiment [10] it was 0.035 µg/mL; in experiment [11], 0.102 µg/mL; in [12], > 50 µg/mL; in experiment [13], ≤ 0.02 µg/mL. The “IC50 of virus neutralization (TZM-BL, luciferase)” value in experiment [14] is 0.079 µg/mL; in [15], 0.037 µg/mL; in experiment [16], > 50 µg/mL; in experiment [17] it was > 50 µg/mL.
